The record followed here is patent publication US20250257143A1 (FORTE SUBSIDIARY, published 2025).

The target of assay [1] is T1, huCD122-HIS (ARCO Bio | Cat No. CD2-H5221) (human, UniProt P14784 27-239).
T1 construct: Bought analyte of the BLI assay; also called human CD122; not shown: His tag
T1 sequence (looked up): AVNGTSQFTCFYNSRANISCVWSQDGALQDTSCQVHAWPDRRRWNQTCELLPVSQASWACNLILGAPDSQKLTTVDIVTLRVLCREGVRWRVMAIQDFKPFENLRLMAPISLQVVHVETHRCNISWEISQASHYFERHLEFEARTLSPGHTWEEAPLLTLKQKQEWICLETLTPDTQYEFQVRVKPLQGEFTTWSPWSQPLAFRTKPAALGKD
Description: BLI Octet, antibody captured on AHC sensor, huCD122-His analyte, 1:1 fit. As to the method: (§1) Based on Bio-Layer Interferometry (BLI), the Octet® BLI system is a fluidics-free instrument platform that enables real-time, label-free analysis for the determination of kinetics, affinity and antibody/protein quantitation. Binding experiments were performed on Octet HTX at 25° C. The analyte used was huCD122-HIS (ARCO Bio | Cat No. CD2-H5221) at a molecular weight of 25.4 kDa. The antibodies were loaded onto Anti-human Fc capture (AHC) sensors. The loaded sensors were dipped into serial dilutions of huCD122-His (Starting at 20 nM, 1:3 dilution, 4 points). Reference sample well (buffer) was used for data analysis. Kinetic constants were calculated using a monovalent (1:1) binding model. The assay buffer used was PBS with 0.1% BSA, […], pH 7.2. The regeneration buffer used was 10 mM Glycine buffer (pH 1.7). The four concentrations of huCD122-His used to determine anti-CD122 antibody binding and dissociation properties were 0.0 nM, 2.2 nM, 6.7 nM, and 20 nM. Sensorgram plots to display antibody binding characteristics were generated. The mouse parental chimera configurations in both IgG1 and IgG4 backbones (M5 IgG1 parental and M5 IgG4 parental) were tested as well as each combination of the humanized 3 HC and 3 LC variants in either an IgG1 or an IgG4 backbone.
Background: BLI is a label-free optical method that tracks binding on a fibre tip over time.

Assay [2] concerns the target T1, huCD122-HIS (ARCO Bio | Cat No. …). The assay can be described thus: BLI Octet, antibody captured on AHC sensor, huCD122-His analyte, 1:1 fit; second batch. The protocol:
as §1

Assay [3] has the same target. Description: BLI Octet; reference: parental chimeras (G1, G11). As to the method:
as §1

B1: G1 (antibody)
heavy: not shown
light: DIQMTQTTSSLSASLGDRVTINCRASQDISNFLNWYQQKPDGTLKLLIYYTSGLHSGVPSRFSGSGSGTDYSLTISNLEEEDIATYFCQQDNNHPYTFGSGTKLEIKRTVAAPSVFIFPPSDEQLKSGTASVVCLLNNFYPREAKVQWKVDNALQSGNSQESVTEQDSKDSTYSLSSTLTLSKADYEKHKVYACEVTHQGLSSPVTKSFNRGEC
notes: Chimeric: mouse parental variable domains in human IgG1 (G1M17 allotype), kappa; also called M5 IgG1 parental; G1 mouse parental IgG1 chimera
For orientation: Kd means the concentration at which binding is half-saturated. Usually koff stands for the first-order rate constant of dissociation. As usually defined, the kon is the second-order rate constant of association. In the case of B1, in assay [1], the Kd is 0.727 nM, the Response was determined as 0.381, the koff turned out to be 0.0004 s⁻¹ and the on-rate constant (kon) amounted to 549000 M⁻¹ s⁻¹.

B2: G11 (antibody, human IgG4 S228P, kappa)
heavy: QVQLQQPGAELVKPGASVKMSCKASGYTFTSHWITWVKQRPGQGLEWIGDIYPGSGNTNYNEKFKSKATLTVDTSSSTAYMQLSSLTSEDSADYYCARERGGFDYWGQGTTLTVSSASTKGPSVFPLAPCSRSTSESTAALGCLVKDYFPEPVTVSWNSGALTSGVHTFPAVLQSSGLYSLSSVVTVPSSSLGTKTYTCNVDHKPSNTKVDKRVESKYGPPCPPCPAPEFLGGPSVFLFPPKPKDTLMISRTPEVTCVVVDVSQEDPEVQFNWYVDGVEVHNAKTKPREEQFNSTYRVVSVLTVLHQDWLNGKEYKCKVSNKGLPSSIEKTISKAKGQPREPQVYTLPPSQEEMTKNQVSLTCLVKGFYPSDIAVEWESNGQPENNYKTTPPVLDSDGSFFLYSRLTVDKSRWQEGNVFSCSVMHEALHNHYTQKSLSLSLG
light: DIQMTQTTSSLSASLGDRVTINCRASQDISNFLNWYQQKPDGTLKLLIYYTSGLHSGVPSRFSGSGSGTDYSLTISNLEEEDIATYFCQQDNNHPYTFGSGTKLEIKRTVAAPSVFIFPPSDEQLKSGTASVVCLLNNFYPREAKVQWKVDNALQSGNSQESVTEQDSKDSTYSLSSTLTLSKADYEKHKVYACEVTHQGLSSPVTKSFNRGEC
notes: Chimeric: mouse parental variable domains in human IgG4 (S228P), kappa; also called M5 IgG4 parental; G11 mouse parental IgG4 chimera
As to B2, in assay [2], the Kd amounted to 0.866 nM, the Response came out at 0.327, the koff turned out to be 0.000491 s⁻¹ and the kon was found to be 567000 M⁻¹ s⁻¹. Besides, in assay [1], the Kd was found to be 0.795 nM, the Response came to 0.326, the koff stood at 0.000423 s⁻¹ and the kon came to 532000 M⁻¹ s⁻¹.

B3: G15 (antibody, human IgG4 S228P, kappa)
heavy: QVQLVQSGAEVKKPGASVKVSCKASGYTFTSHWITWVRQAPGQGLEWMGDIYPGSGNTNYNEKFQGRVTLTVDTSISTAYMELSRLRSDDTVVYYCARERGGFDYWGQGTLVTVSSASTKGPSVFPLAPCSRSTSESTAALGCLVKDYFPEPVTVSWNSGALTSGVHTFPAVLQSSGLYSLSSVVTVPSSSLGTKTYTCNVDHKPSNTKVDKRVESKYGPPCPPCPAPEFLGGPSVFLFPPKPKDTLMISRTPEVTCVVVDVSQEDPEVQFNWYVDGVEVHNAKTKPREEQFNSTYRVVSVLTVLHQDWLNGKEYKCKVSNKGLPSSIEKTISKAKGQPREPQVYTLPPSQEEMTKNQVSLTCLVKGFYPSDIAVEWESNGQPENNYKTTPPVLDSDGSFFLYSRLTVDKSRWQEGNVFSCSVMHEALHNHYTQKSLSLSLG
light: DIQMTQSPSSLSASVGDRVTITCRASQDISNFLNWYQQKPEGTLKLLIYYTSGLHSGVPSRFSGSGSGTDFTLTISSLQPEDVATYYCQQDNNHPYTFGQGTKLEIKRTVAAPSVFIFPPSDEQLKSGTASVVCLLNNFYPREAKVQWKVDNALQSGNSQESVTEQDSKDSTYSLSSTLTLSKADYEKHKVYACEVTHQGLSSPVTKSFNRGEC
notes: Humanized, human IgG4 (S228P), kappa
In the case of B3, in assay [2], the Kd was 1.33 nM, the Response was found to be 0.312, the koff was 0.000647 s⁻¹ and the kon is 485000 M⁻¹ s⁻¹. In assay [1], the Kd turned out to be 1.37 nM, the Response was 0.337, the koff came to 0.000639 s⁻¹ and the kon was 466000 M⁻¹ s⁻¹. In assay [3], the “fold change in KD against the parental chimera” value (“fold change in KD” for short) was less than 3 fold.

B4: G5 (antibody, human IgG1, kappa)
heavy: not shown
light: DIQMTQSPSSLSASVGDRVTITCRASQDISNFLNWYQQKPEGTLKLLIYYTSGLHSGVPSRFSGSGSGTDFTLTISSLQPEDVATYYCQQDNNHPYTFGQGTKLEIKRTVAAPSVFIFPPSDEQLKSGTASVVCLLNNFYPREAKVQWKVDNALQSGNSQESVTEQDSKDSTYSLSSTLTLSKADYEKHKVYACEVTHQGLSSPVTKSFNRGEC
notes: Humanized, human IgG1 (G1M17), kappa
For B4, in assay [1], the Kd is 1.18 nM, the Response was found to be 0.377, the koff came out at 0.000581 s⁻¹ and the kon turned out to be 494000 M⁻¹ s⁻¹. Also, in assay [3], the “fold change in KD” value is less than 3 fold.

B5: G2 (antibody, human IgG1, kappa)
heavy: not shown
light: DIQMTQSPSSLSASVGDRVTITCRASQDISNFLNWYQQKPEGTLKLLIYYTSGLHSGVPSRFSGSGSGTDFTLTISSLQPEDVATYYCQQDNNHPYTFGQGTKLEIKRTVAAPSVFIFPPSDEQLKSGTASVVCLLNNFYPREAKVQWKVDNALQSGNSQESVTEQDSKDSTYSLSSTLTLSKADYEKHKVYACEVTHQGLSSPVTKSFNRGEC
notes: as for B4
As for B5, in assay [1], the Kd worked out at 0.831 nM, the Response was found to be 0.372, the off-rate constant (koff) came out at 0.000409 s⁻¹ and the kon is 492000 M⁻¹ s⁻¹. In assay [3], the “fold change in KD” value was less than 3 fold.

B6: G18 (antibody, human IgG4 S228P, kappa)
heavy: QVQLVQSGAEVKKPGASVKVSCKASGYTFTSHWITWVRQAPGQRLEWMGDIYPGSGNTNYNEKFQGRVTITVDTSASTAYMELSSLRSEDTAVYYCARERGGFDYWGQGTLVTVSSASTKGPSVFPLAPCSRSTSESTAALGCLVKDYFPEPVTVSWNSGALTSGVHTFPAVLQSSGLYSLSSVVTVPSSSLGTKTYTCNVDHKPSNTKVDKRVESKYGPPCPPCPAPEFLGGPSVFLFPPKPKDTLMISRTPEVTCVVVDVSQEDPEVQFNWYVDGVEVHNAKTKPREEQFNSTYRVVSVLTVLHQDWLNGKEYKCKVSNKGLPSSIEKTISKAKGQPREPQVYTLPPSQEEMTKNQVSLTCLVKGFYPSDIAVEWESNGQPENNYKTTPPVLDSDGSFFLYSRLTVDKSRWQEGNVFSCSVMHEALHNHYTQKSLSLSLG
light: DIQMTQSPSSLSASVGDRVTITCRASQDISNFLNWYQQKPEGTLKLLIYYTSGLHSGVPSRFSGSGSGTDFTLTISSLQPEDVATYYCQQDNNHPYTFGQGTKLEIKRTVAAPSVFIFPPSDEQLKSGTASVVCLLNNFYPREAKVQWKVDNALQSGNSQESVTEQDSKDSTYSLSSTLTLSKADYEKHKVYACEVTHQGLSSPVTKSFNRGEC
notes: as for B3
B6: in assay [1], the Kd was 0.98 nM, the Response was 0.315, the koff is 0.000453 s⁻¹ and the kon was 462000 M⁻¹ s⁻¹. The “fold change in KD” value in assay [3] is less than 3 fold.

B7: G12 (antibody, human IgG4 S228P, kappa)
heavy: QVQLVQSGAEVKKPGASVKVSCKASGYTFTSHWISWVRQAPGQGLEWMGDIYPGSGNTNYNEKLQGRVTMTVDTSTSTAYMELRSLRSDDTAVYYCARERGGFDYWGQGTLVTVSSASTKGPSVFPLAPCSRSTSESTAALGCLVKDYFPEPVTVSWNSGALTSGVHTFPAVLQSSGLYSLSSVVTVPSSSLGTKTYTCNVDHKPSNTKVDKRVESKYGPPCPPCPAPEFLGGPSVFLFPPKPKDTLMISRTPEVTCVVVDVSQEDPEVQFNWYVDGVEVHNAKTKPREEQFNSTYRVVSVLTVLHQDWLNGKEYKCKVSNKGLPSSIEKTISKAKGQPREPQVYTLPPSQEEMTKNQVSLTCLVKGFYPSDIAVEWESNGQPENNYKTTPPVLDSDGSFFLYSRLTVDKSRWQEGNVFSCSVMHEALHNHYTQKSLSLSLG
light: DIQMTQSPSSLSASVGDRVTITCRASQDISNFLNWYQQKPEGTLKLLIYYTSGLHSGVPSRFSGSGSGTDFTLTISSLQPEDVATYYCQQDNNHPYTFGQGTKLEIKRTVAAPSVFIFPPSDEQLKSGTASVVCLLNNFYPREAKVQWKVDNALQSGNSQESVTEQDSKDSTYSLSSTLTLSKADYEKHKVYACEVTHQGLSSPVTKSFNRGEC
notes: as for B3
Take B7: in assay [2], the Kd came out at 1.43 nM, the Response worked out at 0.334, the koff was found to be 0.000646 s⁻¹ and the kon stood at 452000 M⁻¹ s⁻¹. Besides, in assay [1], the Kd was found to be 1.08 nM, the Response amounted to 0.354, the koff was found to be 0.000488 s⁻¹ and the kon was 451000 M⁻¹ s⁻¹. Also, the “fold change in KD” value in assay [3] is less than 3 fold.

B8: G8 (antibody, human IgG1, kappa)
heavy: not shown
light: DIQMTQSPSSLSASVGDRVTITCRASQDISNFLNWYQQKPEGTLKLLIYYTSGLHSGVPSRFSGSGSGTDFTLTISSLQPEDVATYYCQQDNNHPYTFGQGTKLEIKRTVAAPSVFIFPPSDEQLKSGTASVVCLLNNFYPREAKVQWKVDNALQSGNSQESVTEQDSKDSTYSLSSTLTLSKADYEKHKVYACEVTHQGLSSPVTKSFNRGEC
notes: as for B4
For the molecule B8, in assay [1], the Kd is 0.943 nM, the Response was 0.389, the koff worked out at 0.000425 s⁻¹ and the kon is 450000 M⁻¹ s⁻¹. Moreover, in assay [3], the “fold change in KD” value was less than 3 fold.
